System: peptide library, one residue held at a place counted from the S/T acceptor
Assay: relative phosphorylation of the sub-library (ratio to the mean residue at this position); higher = residue favoured
How it was run: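 Spots on streptavidin membranes were phosphorimaged and quantified by densitometry to measure phosphorylation of biotinylated degenerate peptide sub-libraries by purified recombinant kinases, human or orthologue constructs. The reactions ran in 384-well plates for 90 min under kinase-specific conditions, with peptides at 50 μM and 50 μM ATP spiked with γ-32P-ATP. Relative sub-library phosphorylation is the ratio to the mean residue at that position.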

Chain of TAOK3, construct: Full length with a 14aa C-terminal extension from Gateway cloning, human (Q9H2K8 whole entry, looked up): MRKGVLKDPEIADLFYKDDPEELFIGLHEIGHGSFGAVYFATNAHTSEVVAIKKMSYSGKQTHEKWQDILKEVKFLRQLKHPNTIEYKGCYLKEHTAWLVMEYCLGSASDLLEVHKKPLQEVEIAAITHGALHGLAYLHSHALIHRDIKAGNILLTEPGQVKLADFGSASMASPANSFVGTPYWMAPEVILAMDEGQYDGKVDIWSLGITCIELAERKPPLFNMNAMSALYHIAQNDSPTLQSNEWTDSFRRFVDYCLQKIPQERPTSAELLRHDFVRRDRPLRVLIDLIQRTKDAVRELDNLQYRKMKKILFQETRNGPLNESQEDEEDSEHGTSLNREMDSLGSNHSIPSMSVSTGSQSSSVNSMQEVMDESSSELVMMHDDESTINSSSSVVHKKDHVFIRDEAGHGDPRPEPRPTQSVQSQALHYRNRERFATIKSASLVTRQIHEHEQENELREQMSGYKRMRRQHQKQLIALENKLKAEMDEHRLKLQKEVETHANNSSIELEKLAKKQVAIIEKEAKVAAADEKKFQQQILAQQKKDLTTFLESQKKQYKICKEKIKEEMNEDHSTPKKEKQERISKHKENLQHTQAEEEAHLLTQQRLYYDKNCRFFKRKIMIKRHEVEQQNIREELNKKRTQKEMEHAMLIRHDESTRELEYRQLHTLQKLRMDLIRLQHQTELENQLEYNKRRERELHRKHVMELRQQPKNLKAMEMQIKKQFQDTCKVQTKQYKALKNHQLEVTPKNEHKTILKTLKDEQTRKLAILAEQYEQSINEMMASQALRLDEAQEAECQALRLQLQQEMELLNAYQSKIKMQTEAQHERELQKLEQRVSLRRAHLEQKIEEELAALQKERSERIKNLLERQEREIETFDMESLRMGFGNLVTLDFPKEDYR
Chain of TSSK6, construct: Full length, human (Q9BXA6 whole entry, looked up): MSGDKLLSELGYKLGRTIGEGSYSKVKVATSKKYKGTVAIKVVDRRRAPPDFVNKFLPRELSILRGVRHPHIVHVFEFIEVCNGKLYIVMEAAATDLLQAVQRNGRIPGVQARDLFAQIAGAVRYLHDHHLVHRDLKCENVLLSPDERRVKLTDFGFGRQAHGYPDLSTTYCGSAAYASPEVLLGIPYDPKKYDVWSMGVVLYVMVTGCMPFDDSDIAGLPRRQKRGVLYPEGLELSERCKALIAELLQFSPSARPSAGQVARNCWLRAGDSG
Chain of TRPM6, construct: aa1699-end, human (Q9BX84 1699-2022, looked up): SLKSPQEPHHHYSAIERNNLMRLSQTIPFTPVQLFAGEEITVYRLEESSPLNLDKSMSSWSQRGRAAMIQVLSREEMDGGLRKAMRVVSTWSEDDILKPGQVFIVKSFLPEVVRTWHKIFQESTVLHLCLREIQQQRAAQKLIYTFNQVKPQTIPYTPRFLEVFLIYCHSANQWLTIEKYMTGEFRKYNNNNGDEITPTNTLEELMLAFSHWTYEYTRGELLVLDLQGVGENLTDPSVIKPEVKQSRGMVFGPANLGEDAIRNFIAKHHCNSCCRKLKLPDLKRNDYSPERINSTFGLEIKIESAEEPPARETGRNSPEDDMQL

RPS6KA5, construct: Full length, human (from UniProt O75582)
relative phosphorylation
Settings	at +1	at +2	at +3	at +4	at -1	at -2	at -3	at -4	at -5
A fixed	0.772	0.9	0.834	0.825	0.783	0.787	0.718	0.981	1.04
D fixed	0.723	2.19	1.3	1.63	0.877	0.316	0.294	0.639	0.65
E fixed	0.84	1.43	1.27	1.62	0.544	0.306	0.314	0.757	0.597
F fixed	1.44	0.986	1.12	0.863	0.767	0.4	0.352	0.778	0.91
G fixed	0.633	0.826	0.988	1	0.855	0.675	0.499	1.31	1.18
H fixed	1.04	1.59	1.35	1.23	1.16	1.06	1.18	1.18	1.03
I fixed	1.48	0.676	0.738	0.713	0.435	0.272	0.286	0.694	0.779
K fixed	0.616	0.436	0.674	0.588	1.57	1.8	1.18	1.34	1.2
L fixed	1.32	0.95	1.09	0.777	1.07	0.444	0.293	0.807	1.03
M fixed	1.49	0.781	0.981	0.788	1.04	0.445	0.39	1.07	0.962
N fixed	0.976	1.27	0.92	1.2	1.42	0.693	0.51	0.909	0.81
P fixed	0.292	0.581	0.98	1.5	1.63	0.367	0.588	1.1	0.923
Q fixed	1.19	0.734	0.989	1.12	1.15	0.843	0.666	0.915	0.774
R fixed	0.539	0.52	0.574	0.551	1.5	7.44	8.25	2.04	2.26
V fixed	1.21	0.81	0.714	0.721	0.466	0.318	0.282	0.663	0.775
W fixed	1.21	1.03	1.33	0.959	0.743	0.425	0.709	0.86	1.2
Y fixed	1.25	1.28	1.16	0.912	1	0.4	0.486	0.952	0.871
pThr fixed	1.64	1.88	1.62	2.88	0.451	0.325	0.406	0.697	0.68
pTyr fixed	1.68	1.25	1.53	1.57	0.898	0.392	0.539	0.698	0.747

TAOK3, construct: Full length with a 14aa C-terminal extension from Gateway cloning, human (from UniProt Q9H2K8)
relative phosphorylation
Settings	at +1	at +2	at +3	at +4	at -1	at -2	at -3	at -4	at -5
A fixed	0.522	0.851	0.743	0.866	0.788	1.15	0.775	1.01	1.16
D fixed	0.371	0.801	0.592	0.65	0.99	1.03	0.879	1.47	1.59
E fixed	0.343	0.54	0.547	0.658	0.546	0.718	0.916	1.54	1.36
F fixed	1.34	0.424	0.68	0.771	0.709	1.35	0.543	0.663	0.81
G fixed	0.605	0.943	1.38	1.11	2.03	1.43	1.4	1.27	1.17
H fixed	0.973	1.21	1.19	1.18	1.28	0.92	0.95	1.04	1.09
I fixed	1.52	0.593	0.578	0.859	0.3	0.508	0.416	0.497	0.596
K fixed	0.647	2.32	2.11	1.76	1.54	0.836	2.45	1.15	1.35
L fixed	1.63	0.507	0.707	0.681	0.717	0.526	0.445	0.536	0.627
M fixed	1.52	0.612	0.606	0.718	0.911	0.805	0.566	0.682	0.629
N fixed	0.595	1.73	1.08	0.891	1.61	1.15	1.28	1.42	1.23
P fixed	0.551	1.09	1.14	0.945	0.707	1.17	1.23	1.38	0.984
Q fixed	0.685	0.941	0.987	1.04	1.08	0.856	1.12	1.12	0.961
R fixed	0.583	2.5	2.29	1.62	1.37	0.959	1.73	1.11	1.13
V fixed	1.05	0.659	0.558	0.753	0.373	0.541	0.459	0.562	0.634
W fixed	2.79	0.578	0.971	1.19	0.807	0.932	0.832	0.819	0.92
Y fixed	1.28	0.704	0.854	1.31	1.24	2.12	1	0.726	0.781
pThr fixed	0.887	0.729	0.858	0.782	0.588	1.11	1.23	1.49	1.36
pTyr fixed	0.719	0.757	0.752	0.848	2.28	1.3	1.18	1.33	1.47

TRPM6, construct: aa1699-end, human (from UniProt Q9BX84)
relative phosphorylation
Settings	at +1	at +2	at +3	at +4	at -1	at -2	at -3	at -4	at -5
A fixed	0.996	1.48	2.44	0.962	0.767	0.976	0.898	1.12	1.29
D fixed	0.396	0.307	0.4	0.983	0.669	0.615	0.898	1	1.12
E fixed	0.732	0.319	0.381	0.993	0.577	0.678	0.928	1.11	1.22
F fixed	0.824	1.31	0.776	0.816	0.504	1.03	0.829	0.991	1.02
G fixed	0.509	0.788	1.09	1.33	0.421	1.36	1.06	1.35	1.43
H fixed	1.08	0.995	0.992	1.01	1.24	0.768	1.08	0.911	1.11
I fixed	1.19	0.651	0.394	0.755	0.46	0.519	0.825	0.819	0.69
K fixed	2.27	0.855	2.27	1.27	4.26	0.678	1.18	0.887	1.12
L fixed	0.909	0.92	0.633	0.705	0.673	0.772	0.928	0.81	0.696
M fixed	0.816	1.38	0.708	0.88	0.576	1.17	0.838	0.914	0.767
N fixed	0.685	0.66	1.04	0.945	1.08	0.731	1.34	0.931	1
P fixed	0.376	2.29	0.963	1.3	0.964	1.74	1.5	1.35	0.904
Q fixed	1.36	0.956	0.827	1.27	0.892	0.773	1.14	1.08	1.07
R fixed	1.96	0.942	1.83	1.02	2.16	0.609	0.963	0.901	0.928
V fixed	0.903	0.562	0.539	0.805	0.51	0.609	0.737	0.789	0.747
W fixed	0.873	1.28	0.679	1.01	0.464	3.23	1.09	1.16	0.996
Y fixed	1.12	1.3	1.04	0.948	0.78	0.746	0.774	0.875	0.884
pThr fixed	0.646	0.552	0.592	1.04	0.7	0.837	1.1	1.2	1.21
pTyr fixed	1.15	0.701	0.772	0.915	0.729	0.729	0.959	1.02	0.79

TSSK6, construct: Full length, human (from UniProt Q9BXA6)
relative phosphorylation
Settings	at +1	at +2	at +3	at +4	at -1	at -2	at -3	at -4	at -5
A fixed	0.866	0.53	0.939	0.483	1.08	1.85	1.52	1.26	2.13
D fixed	0.814	0.32	1.61	0.385	0.442	0.203	0.21	0.354	0.243
E fixed	0.876	0.568	0.702	0.265	0.603	0.328	0.335	0.562	0.234
F fixed	0.806	1.16	1.03	1.5	0.537	0.586	0.45	0.532	0.466
G fixed	0.426	0.258	0.513	0.584	0.604	0.649	0.965	1.22	0.542
H fixed	1.23	3.4	1.89	0.696	0.82	0.868	0.848	1.32	0.607
I fixed	0.765	1.51	0.506	2.46	0.579	0.891	0.724	0.673	1.45
K fixed	1.45	0.403	1.09	0.543	2.1	3.12	2.57	2.67	0.911
L fixed	0.925	1.38	0.645	3.38	0.657	0.416	0.61	0.721	1.71
M fixed	1.16	1.69	0.825	1.68	0.874	0.629	0.779	0.968	0.703
N fixed	1.38	0.574	1.94	0.653	0.876	0.87	0.72	0.758	0.508
P fixed	0.155	0.299	0.204	0.591	1.83	0.446	1.35	0.544	1.46
Q fixed	1.56	0.847	1.02	0.605	1.35	1.23	0.962	0.943	0.999
R fixed	1.83	0.499	1.25	0.506	2.4	2.11	3.07	2.22	1.93
V fixed	0.932	0.96	0.59	1.42	0.804	1.55	0.773	0.938	1.73
W fixed	0.85	1.08	1.27	0.677	0.662	0.518	0.571	0.641	0.469
Y fixed	0.97	1.52	0.981	0.582	0.778	0.747	0.555	0.685	0.902
pThr fixed	0.547	0.29	0.216	0.269	0.566	0.279	0.724	0.748	0.793
pTyr fixed	0.534	0.459	0.32	0.268	0.417	0.427	0.519	0.447	0.752

From the supplement of paper PMC9876800
